In IntAct's records for PubMed 29892012:

B1: TBC1 domain family member 22B (Homo sapiens), Q9NU19 (parent)
chain: MAAENSKQFWKRSAKLPGSIQPVYGAQHPPLDPRLTKNFIKERSKVNTVPLKNKKASSFHEFARNTSDAWDIGDDEEEDFSSPSFQTLNSKVALATAAQVLENHSKLRVKPERSQSTTSDVPANYKVIKSSSDAQLSRNSSDTCLRNPLHKQQSLPLRPIIPLVARISDQNASGAPPMTVREKTRLEKFRQLLSSQNTDLDELRKCSWPGVPREVRPITWRLLSGYLPANTERRKLTLQRKREEYFGFIEQYYDSRNEEHHQDTYRQIHIDIPRTNPLIPLFQQPLVQEIFERILFIWAIRHPASGYVQGINDLVTPFFVVFLSEYVEEDVENFDVTNLSQDMLRSIEADSFWCMSKLLDGIQDNYTFAQPGIQKKVKALEELVSRIDEQVHNHFRRYEVEYLQFAFRWMNNLLMRELPLRCTIRLWDTYQSEPEGFSHFHLYVCAAFLIKWRKEILDEEDFQGLLMLLQNLPTIHWGNEEIGLLLAEAYRLKYMFADAPNHYRR
partner: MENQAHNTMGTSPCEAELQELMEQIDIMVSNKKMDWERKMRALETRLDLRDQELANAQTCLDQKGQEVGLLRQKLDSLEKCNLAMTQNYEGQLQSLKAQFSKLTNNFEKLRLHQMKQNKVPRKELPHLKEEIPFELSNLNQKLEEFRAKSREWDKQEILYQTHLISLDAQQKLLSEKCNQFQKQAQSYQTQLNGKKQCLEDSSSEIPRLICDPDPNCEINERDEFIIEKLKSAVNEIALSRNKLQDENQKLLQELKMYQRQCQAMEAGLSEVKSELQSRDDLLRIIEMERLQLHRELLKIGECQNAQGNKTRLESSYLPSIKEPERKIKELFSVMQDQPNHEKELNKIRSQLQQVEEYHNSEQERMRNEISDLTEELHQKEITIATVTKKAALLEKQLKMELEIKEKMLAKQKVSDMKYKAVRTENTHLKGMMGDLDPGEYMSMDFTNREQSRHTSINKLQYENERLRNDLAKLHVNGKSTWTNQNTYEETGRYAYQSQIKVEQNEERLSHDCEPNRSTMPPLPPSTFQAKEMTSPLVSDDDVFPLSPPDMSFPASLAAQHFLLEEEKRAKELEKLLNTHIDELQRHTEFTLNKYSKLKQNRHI
B2: Enhancer of mRNA-decapping protein 3 (Homo sapiens), Q96F86 (parent)
chain: MATDWLGSIVSINCGDSLGVYQGRVSAVDQVSQTISLTRPFHNGVKCLVPEVTFRAGDITELKILEIPGPGDNQHFGDLHQTELGPSGAGCQVGINQNGTGKFVKKPASSSSAPQNIPKRTDVKSQDVAVSPQQQQCSKSYVDRHMESLSQSKSFRRRHNSWSSSSRHPNQATPKKSGLKNGQMKNKDDECFGDDIEEIPDTDFDFEGNLALFDKAAVFEEIDTYERRSGTRSRGIPNERPTRYRHDENILESEPIVYRRIIVPHNVSKEFCTDSGLVVPSISYELHKKLLSVAEKHGLTLERRLEMTGVCASQMALTLLGGPNRLNPKNVHQRPTVALLCGPHVKGAQGISCGRHLANHDVQVILFLPNFVKMLESITNELSLFSKTQGQQVSSLKDLPTSPVDLVINCLDCPENVFLRDQPWYKAAVAWANQNRAPVLSIDPPVHEVEQGIDAKWSLALGLPLPLGEHAGRIYLCDIGIPQQVFQEVGINYHSPFGCKFVIPLHSA
partner: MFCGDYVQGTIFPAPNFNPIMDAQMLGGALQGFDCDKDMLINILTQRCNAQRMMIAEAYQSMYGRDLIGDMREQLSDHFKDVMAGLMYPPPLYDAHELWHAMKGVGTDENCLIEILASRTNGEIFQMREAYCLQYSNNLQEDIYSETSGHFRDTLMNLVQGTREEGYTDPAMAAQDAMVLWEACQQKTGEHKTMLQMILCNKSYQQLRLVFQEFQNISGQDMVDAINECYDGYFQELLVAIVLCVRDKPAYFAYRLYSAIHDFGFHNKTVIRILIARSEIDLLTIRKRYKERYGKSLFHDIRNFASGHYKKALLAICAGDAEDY
B3: Atos homolog protein B (Homo sapiens), Q7L5A3 (parent)
chain: MRHVQAEPSPSSEPEAGPSQPPVRQGALQGGLLMGYSPAGGATSPGVYQVSIFSPPAGTSEPHRALKRQAPSTEGPRELKRGPGLGAREGLPPEEPSTVGLLGPEGPGLGLGVASQHFSHRGLCVVEQRSSVTSSWTSGAWSPPCPPSNASCNTLHTRDWASPDPGGQGSLGESPGPAPPGQLHTLDTDLHSLAQIGGKSPVAGVGNGGSLWPRESPGTANGHSPEHTPPGPGPPGPCPTKRRLLPAGEAPDVSSEEEGPAPRRRRGSLGHPTAANSSDAKATPFWSHLLPGPKEPVLDPTDCGPMGRRLKGARRLKLSPLRSLRKGPGLLSPPSASPVPTPAVSRTLLGNFEESLLRGRFAPSGHIEGFTAEIGASGSYCPQHVTLPVTVTFFDVSEQNAPAPFLGIVDLNPLGRKGYSVPKVGTVQVTLFNPNQTVVKMFLVTFDFSDMPAAHMTFLRHRLFLVPVGEEGNANPTHRLLCYLLHLRFRSSRSGRLSLHGDIRLLFSRRSLELDTGLPYELQAVTEAPHNPRYSPLP
partner: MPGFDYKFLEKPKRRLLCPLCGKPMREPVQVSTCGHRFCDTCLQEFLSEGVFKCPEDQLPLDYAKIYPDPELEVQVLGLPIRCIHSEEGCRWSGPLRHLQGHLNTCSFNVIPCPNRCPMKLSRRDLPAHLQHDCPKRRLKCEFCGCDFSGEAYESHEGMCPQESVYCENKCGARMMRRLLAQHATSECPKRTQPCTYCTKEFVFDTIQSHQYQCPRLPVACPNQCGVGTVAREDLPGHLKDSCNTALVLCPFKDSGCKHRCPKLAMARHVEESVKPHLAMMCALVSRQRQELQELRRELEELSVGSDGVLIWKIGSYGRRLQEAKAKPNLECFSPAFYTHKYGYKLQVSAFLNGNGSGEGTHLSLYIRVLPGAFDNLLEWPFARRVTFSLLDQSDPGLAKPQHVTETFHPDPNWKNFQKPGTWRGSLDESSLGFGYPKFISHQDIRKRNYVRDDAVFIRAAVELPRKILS
B4: Glycodelin (Homo sapiens), P09466 (parent)
chain: MLCLLLTLGVALVCGVPAMDIPQTKQDLELPKLAGTWHSMAMATNNISLMATLKAPLRVHITSLLPTPEDNLEIVLHRWENNSCVEKKVLGEKTENPKKFKINYTVANEATLLDTDYDNFLFLCLQDTTTPIQSMMCQYLARVLVEDDEIMQGFIRAFRPLPRHLWYLLDLKQMEEPCRF
partner: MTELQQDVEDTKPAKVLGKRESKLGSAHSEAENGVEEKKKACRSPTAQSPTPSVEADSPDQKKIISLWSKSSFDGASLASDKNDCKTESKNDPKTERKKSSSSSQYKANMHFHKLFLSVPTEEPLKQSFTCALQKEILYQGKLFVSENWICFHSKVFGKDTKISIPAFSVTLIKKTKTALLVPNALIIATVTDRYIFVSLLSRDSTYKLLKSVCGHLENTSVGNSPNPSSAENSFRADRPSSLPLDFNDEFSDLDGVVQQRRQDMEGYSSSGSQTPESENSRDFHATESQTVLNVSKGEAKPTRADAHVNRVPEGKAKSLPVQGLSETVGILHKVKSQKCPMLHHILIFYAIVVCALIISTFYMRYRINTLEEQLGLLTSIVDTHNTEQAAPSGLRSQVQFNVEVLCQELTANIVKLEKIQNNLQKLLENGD
B5: Inositol polyphosphate 5-phosphatase K (Homo sapiens), Q9BT40 (parent)
chain: MSSRKLSGPKGRRLSIHVVTWNVASAAPPLDLSDLLQLNNRNLNLDIYVIGLQELNSGIISLLSDAAFNDSWSSFLMDVLSPLSFIKVSHVRMQGILLLVFAKYQHLPYIQILSTKSTPTGLFGYWGNKGGVNICLKLYGYYVSIINCHLPPHISNNYQRLEHFDRILEMQNCEGRDIPNILDHDLIIWFGDMNFRIEDFGLHFVRESIKNRCYGGLWEKDQLSIAKKHDPLLREFQEGRLLFPPTYKFDRNSNDYDTSEKKRKPAWTDRILWRLKRQPCAGPDTPIPPASHFSLSLRGYSSHMTYGISDHKPVSGTFDLELKPLVSAPLIVLMPEDLWTVENDMMVSYSSTSDFPSSPWDWIGLYKVGLRDVNDYVSYAWVGDSKVSCSDNLNQVYIDISNIPTTEDEFLLCYYSNSLRSVVGISRPFQIPPGSLREDPLGEAQPQI
partner: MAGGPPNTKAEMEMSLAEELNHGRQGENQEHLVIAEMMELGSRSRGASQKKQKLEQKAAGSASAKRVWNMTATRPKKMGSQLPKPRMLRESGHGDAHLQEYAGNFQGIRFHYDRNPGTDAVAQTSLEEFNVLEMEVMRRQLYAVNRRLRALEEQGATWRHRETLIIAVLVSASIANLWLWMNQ

Variants of: B1
Conditions: with deup1_human DEUP1, Q05D60

Variant | effect of a mutation on the interaction
A349T | disrupting interaction strength

Variants of: B2
Conditions: with anx10_human ANXA10, Q9UJ72

Variant | effect of a mutation on the interaction
F213L | with no effect

Variants of: B3
Conditions: with traf4_human TRAF4, Q9BUZ4

Variant | effect of a mutation on the interaction
C381Y | disrupting interaction strength

Variants of: B4
Conditions: with grm2b_human GRAMD2B

Variant | effect of a mutation on the interaction
V75F | disrupting interaction strength

Variants of: B5
Conditions: with fate1_human FATE1, Q969F0

Variant | effect of a mutation on the interaction
R437K | disrupting interaction strength
